Source: WO2011083140A1 (dated 2011)
Several values for one entry are separate records, joined by “and”; a condition that tells them apart may be missing. Equal values may be shown once.

Legend:
[1] = molecular target: T1, human CXCR4 (human, UniProt P61073 1-352); test: cell-based or functional assay
[2] = molecular target: T1, human CXCR4; test: binding to CXCR4 VLP, Table C-3
[3] = molecular target: T1, human CXCR4; test: SDF-1 displacement (competition with SDF-1 for CXCR4), Table C-3
[4] = molecular target: T2, mouse CXCR4 (mouse, UniProt P70658 1-359); test: binding FACS on murine BaF-3 cells, anti-myc detection
T2 construct: whole, on cells; also called mCXCR4

[5] = molecular target: T1, human CXCR4; test: binding to Caki-CXCR4 cells, Table C-3
[6] = molecular target: T3, CXCR4 V196E (human, UniProt P61073 1-352); test: flow cytometry on transiently transfected HEK293T cells, Myc-tag detection
T3 construct: whole, on cells

[7] = molecular target: T4, CXCR4 D187V (human, UniProt P61073 1-352); test: as above
T4 construct: whole, on cells; Printed as Dl 87V in this copy

[8] = molecular target: T5, CXCR4 F189V (human, UniProt P61073 1-352); test: as above
T5 construct: whole, on cells
T5 sequence (P61073 whole entry F189V): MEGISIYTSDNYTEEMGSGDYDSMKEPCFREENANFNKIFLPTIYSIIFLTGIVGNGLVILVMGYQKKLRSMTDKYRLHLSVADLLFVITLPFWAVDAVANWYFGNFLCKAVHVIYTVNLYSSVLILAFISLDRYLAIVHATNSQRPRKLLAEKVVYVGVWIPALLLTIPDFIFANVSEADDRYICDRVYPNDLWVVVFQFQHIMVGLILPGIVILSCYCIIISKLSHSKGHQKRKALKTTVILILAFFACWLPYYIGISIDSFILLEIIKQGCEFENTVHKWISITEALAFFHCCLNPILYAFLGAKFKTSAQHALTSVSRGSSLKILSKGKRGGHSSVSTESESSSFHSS

T1 sequence (P61073 whole entry): as the sequence (P61073 whole entry F189V) above, with V189F counted along it
T2 sequence (P70658 whole entry): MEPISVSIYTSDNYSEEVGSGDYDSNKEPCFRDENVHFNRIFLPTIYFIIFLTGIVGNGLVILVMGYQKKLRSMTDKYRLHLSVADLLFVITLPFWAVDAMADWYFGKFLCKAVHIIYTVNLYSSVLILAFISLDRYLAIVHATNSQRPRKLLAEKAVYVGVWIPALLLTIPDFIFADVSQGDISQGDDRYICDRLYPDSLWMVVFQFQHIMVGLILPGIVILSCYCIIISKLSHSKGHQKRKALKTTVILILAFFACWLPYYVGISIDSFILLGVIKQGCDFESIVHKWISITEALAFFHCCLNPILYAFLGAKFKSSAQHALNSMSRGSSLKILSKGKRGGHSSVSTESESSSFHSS
T4 sequence (P61073 whole entry D187V): as the sequence (P61073 whole entry F189V) above, with D187V, V189F counted along it
T3 sequence (P61073 whole entry V196E): as the sequence (P61073 whole entry F189V) above, with V189F, V196E counted along it

Binder	Chemotaxis IC50 (M) +HSA [1] [M]	Chemotaxis IC50 (M) -HSA [1] [M]	EC50 [2] [nM]	IC50 [3] [nM]	Chemotaxis IC50 (nM) Jurkat [1]	binding result [4]	Chemotaxis Jurkat cells IC50 (M) n=1 [1] [M]	Chemotaxis Jurkat cells IC50 (M) n=2 [1] [M]	cAMP inhibition assay IC50 (M) n=1 [1] [M]	cAMP inhibition assay IC50 (M) n=2 [1] [M]	EC50 [5] [nM]	Chemotaxis Jurkat cells IC50 (M) n=3 [1] [M]	binding result [6]	binding result [7]	binding result [8]
4CXCR015A01 (VHH, not shown: small tags and cut ends, also called 15A1; P4CXCR15A01) VHH: EVQLVESGGGLVQAGGSLRLSCAASGRTFSRAAMGWFRQAPGKEREFVGCALSSAGSALTADSVKGRFTISRDNAKNMVYLQMNNLKPEDTAVYSCVAGGYCTRAGVYPYWGQGTQVTVSS	1.18e-09	1.7e-09	0.2	5.1											
4CXCR010E12 (VHH, also called P4CXCR10E12; not shown: C-terminal c-myc tag and His6 tag) VHH: EVQLVESGGGLVQAGGSLRLSCAVSGRTFTSYDMAWFRQAPGKERESVAAIRWTGSSTYYADSVKGRFTISRDNAKSTVYLQMNSLKPEDTAVYYCAARDTGRYRSRTYDYWGQGTQVTVSS	1.12e-09	2.78e-09	0.22	3	3.5 nM and 1.4 nM	no binding									
4CXCR014A02 (VHH, also called 14A2; not shown: C-terminal c-myc tag and His6 tag) VHH: EVQLVESGGGLVQAGGSLRLSCVASGISSSIRNMGWYRQAPGKQRESVATISSGGNKDYTDAVKDRFTISRDTTKNTVYLQMSSLKPEDTAVYYCKIEAGTGWATRRGYTYWGQGTQVTVSS			0.73	4.1			3.3e-09	8.1e-10	4e-07	2.5e-06	4				
4CXCR281E10 (VHH, Family member of 238D4 (family 17); also called P4CXCR281E10; not shown: C-terminal c-myc tag and His6 tag) VHH: EVQLVESGGGLVQAGGSLRLSCKASGGTFNNYAMGWFRRAPGKEREFVAAITRSGVRSGVSAIYGDSVKDRFTISRDNVKNTLYLQMNTLKPEDTAVYTCAASAIGSGALRRFEYDYSGQGTQVTVSS	2.2e-09	2.08e-09		3.1	3.5 nM and 4.7 nM						3.1				
4CXCR010G10 (VHH, Alexa-647 label in the competition FACS of D-2, also called P4CXCR10G10; not shown: C-terminal c-myc tag and His6 tag) VHH: EVQLVESGGGLVQAGGSLRLSCAASGRTFNSYAMAWFRQAPGKERENVAAIRWSGGRATKYADSVRGRFTISKDNAKNTVYLQMSSLKPEDTAVYYCATQTYYRSGLASTRDFDSWGQGTQVTVSS	7.74e-10	4.11e-09	0.29	7.9	2.1 nM and 2.3 nM	no binding	2.1e-09	2.3e-09	1.6e-07	9.6e-07	3.3	4.1e-09			
4CXCR015H03 (VHH, also called 15H3; P4CXCR15H3; not shown: C-terminal c-myc tag and His6 tag) VHH: EVQLVESGGGSVQTGGSLRVSCAASGLSFNTYTMGWLRQAPGKEREFVAVINWNGDRTNYADSVKGRFSVSRDNAKNTVFLQMNSLRPEDTAVYYCAARPRFTAEPMTSRRYQYWGRGTQVTVSS													binds	binds	binds
4CXCR010E09 (VHH, Monovalent Nanobody from E. coli; also called 10E9; P4CXCR10E09; not shown: C-terminal c-myc tag and His6 tag) VHH: EVQLVESGGGLVQTGGSLRLSCAASGRTFSSYAMGWFRRAPGKEREFVATISWRGDRKYYSESVKDRFTIARGRSNKNAVYLQMNSLKPEDTAVYYCAKDRAPYGSGSPDVKQYEHWGQGTQVTVSS	1.93e-09	3.29e-09	0.52	4.7	3.5 nM and 1.2 nM						2.4				
